Measurements: article PMC8683085, “Serine ADP-ribosylation marks nucleosomes for ALC1-dependent chromatin remodeling” (eLife, 2021)

Molecular target: PARP1 (Homo sapiens, UniProt P09874)
Test: PARP1 ADP-ribose chain elongation on mono-ADP-ribosylated peptide (RP-HPLC), with and without HPF1 titration
Format: biochemical
Conditions: 1 μM PARP1, 180 μM H3S10ADPr1 peptide, 2 mM NAD+, 30 °C 25 min, RP-HPLC A280, n = 3
Method: To analyze PARP1 and PARP2 ADPr activity on peptide substrates, 2 mM NAD^+ and 1 μM stimulating DNA were combined into the ADPr reaction buffer in the presence of 0.2, 1, or 5 μM PARP1 or PARP2, in a 25 μL reaction (2 μM PARP1/2, 2 μM DNA and 50 μL reaction volume for H2B peptides). All unmodified and mono-ADP-ribosylated substrate peptides were analyzed at a concentration of 180 μM (40 μM for H2B peptides). The reaction was incubated at 30 °C for 25 min, quenched via addition of 95 μL (70 μL in case of H2B peptide reactions) of Solvent A. It was then centrifuged at 20,000 RCF for 5 min and 100 μL of the supernatant was injected into an analytical C18 column for product analysis via RP-HPLC. An elution gradient of 0–35% Solvent B over 20 min was employed to optimize separation of the poly-ADP-ribosylated peptide products. Percent substrate turnover was calculated by integrating the peaks for the starting material and each product on the RP-HPLC A280 trace, normalizing them depending on their number of ADP-ribose moieties, and calculating ratio of total product to total peptide amounts for each reaction. All reactions were performed in triplicate and error bars represent standard deviations. Individual peaks corresponding to products with unique ADP-ribose chain lengths were collected and analyzed by ESI-MS. […]

Chain of PARP1 (P09874 whole entry): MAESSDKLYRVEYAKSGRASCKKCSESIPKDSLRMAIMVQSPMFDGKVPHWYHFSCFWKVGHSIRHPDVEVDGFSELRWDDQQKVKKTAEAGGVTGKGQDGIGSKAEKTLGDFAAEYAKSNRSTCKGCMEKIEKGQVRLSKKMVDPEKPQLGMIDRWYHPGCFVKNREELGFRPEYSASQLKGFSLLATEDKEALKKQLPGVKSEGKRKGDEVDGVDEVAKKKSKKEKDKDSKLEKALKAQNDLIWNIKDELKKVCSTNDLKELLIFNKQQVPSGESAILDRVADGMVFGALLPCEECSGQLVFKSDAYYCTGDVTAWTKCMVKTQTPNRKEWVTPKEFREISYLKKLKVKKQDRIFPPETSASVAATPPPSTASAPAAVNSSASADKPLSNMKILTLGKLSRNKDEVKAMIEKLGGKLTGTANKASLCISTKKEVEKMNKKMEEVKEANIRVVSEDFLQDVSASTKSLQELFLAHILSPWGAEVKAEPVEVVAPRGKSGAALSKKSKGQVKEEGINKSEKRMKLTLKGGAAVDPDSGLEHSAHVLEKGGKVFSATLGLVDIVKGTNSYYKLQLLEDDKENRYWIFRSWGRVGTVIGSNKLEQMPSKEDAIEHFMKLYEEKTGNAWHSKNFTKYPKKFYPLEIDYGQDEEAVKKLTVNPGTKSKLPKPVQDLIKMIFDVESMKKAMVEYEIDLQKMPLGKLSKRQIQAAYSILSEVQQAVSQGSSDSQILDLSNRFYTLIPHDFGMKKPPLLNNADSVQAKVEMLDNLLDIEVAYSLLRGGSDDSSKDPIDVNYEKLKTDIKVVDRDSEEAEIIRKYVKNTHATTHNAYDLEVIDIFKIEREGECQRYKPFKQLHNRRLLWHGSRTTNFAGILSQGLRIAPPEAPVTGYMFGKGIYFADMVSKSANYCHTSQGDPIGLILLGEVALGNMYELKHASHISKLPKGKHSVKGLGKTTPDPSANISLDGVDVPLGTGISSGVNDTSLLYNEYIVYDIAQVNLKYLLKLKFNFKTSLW

Molecule	IC50 (read-out: HPF1 concentration giving 50% inhibition of PARP1-catalyzed ADP-ribose polymerization) [µM]	HPF1 concentration giving 50% inhibition of PARP1-catalyzed ADP-ribose polymerization
HPF1: recombinant FLAG-HPF1, amino acids 27–346, PARP1/2-interacting protein (protein, left off: 6xHis, N-terminal, cleaved | SUMO, N-terminal, cleaved | FLAG, N-terminal, kept) KFCEADVSSDLRKEVENHYKLSLPEDFYHFWKFCEELDPEKPSDSLSASLGLQLVGPYDILAGKHKTKKKSTGLNFNLHWRFYYDPPEFQTIIIGDNKTQYHMGYFRDSPDEFPVYVGINEAKKNCIIVPNGDNVFAAVKLFLTKKLREITDKKKINLLKNIDEKLTEAARELGYSLEQRTVKMKQRDKKVVTKTFHGAGLVVPVDKNDVGYRELPETDADLKRICKTIVEAASDEERLKAFAPIQEMMTFVQFANDECDYGMGLELGMDLFCYGSHYFHKVAGQLLPLAYNLLKRNLFAEIIEEHLANRSQENIDQLAA	~14	–
HPF1 mutant (D283A): binding-deficient HPF1 mutant (protein, left off: 6xHis, N-terminal, cleaved | SUMO, N-terminal, cleaved | FLAG, N-terminal, kept) KFCEADVSSDLRKEVENHYKLSLPEDFYHFWKFCEELDPEKPSDSLSASLGLQLVGPYDILAGKHKTKKKSTGLNFNLHWRFYYDPPEFQTIIIGDNKTQYHMGYFRDSPDEFPVYVGINEAKKNCIIVPNGDNVFAAVKLFLTKKLREITDKKKINLLKNIDEKLTEAARELGYSLEQRTVKMKQRDKKVVTKTFHGAGLVVPVDKNDVGYRELPETDADLKRICKTIVEAASDEERLKAFAPIQEMMTFVQFANAECDYGMGLELGMDLFCYGSHYFHKVAGQLLPLAYNLLKRNLFAEIIEEHLANRSQENIDQLAA	–	unable to appreciably inhibit
